In US9187525B2, “Methods of treating ophthalmic diseases using NPR-B agonists” (Shire Orphan Therapies GmbH, dated 2015):
Numbered stars: 1 amine (or outer) side, 2 acyl side, 3 side chain; on linkers, the order of the positions; unused ones are H or OH. Square brackets hold non-standard residues; d marks the D form. * marks the point of attachment. cDR = (S)-2-((S)-3-(carboxymethyl)-2-oxopiperazin-1-yl)-5-guanidinopentanoic acid, N=C(N)NCCC[C@@H](C(=O)[*:2])N1CCN([*:1])[C@@H](CC(=O)[*:3])C1=O; Bhp = (2S,4R)-4-(benzyloxy)pyrrolidine-2-carboxylic acid, O=C([C@@H]1C[C@@H](OCc2ccccc2)CN1[*:1])[*:2]; Npl = (S)-4-methyl-2-(propylamino)pentanoic acid, CCCN([C@@H](CC(C)C)C(=O)[*:2])[*:1]; Ebe = (R)-2-amino-3-(methylsulfanyl)propanoic acid, CSC[C@H](N[*:1])C(=O)[*:2]; Sni = (S)-nipecotic acid, O=C([C@H]1CCCN([*:1])C1)[*:2]; Pro(trans-4-F) = O=C(O)[C@@H]1C[C@@H](F)CN1; Phe(4-Br) = N[C@@H](Cc1ccc(Br)cc1)C(=O)O; Phe(4-Cl) = N[C@@H](Cc1ccc(Cl)cc1)C(=O)O; Phe(4-Me) = Cc1ccc(C[C@H](N)C(=O)O)cc1; Hyp = O=C(O)[C@@H]1C[C@@H](O)CN1; NMeF = CN[C@@H](Cc1ccccc1)C(=O)O; dAgb = N=C(N)NCC[C@@H](N)C(=O)O; dAgp = N=C(N)NC[C@@H](N)C(=O)O; KM‑116‑167 = not defined here; NMeL = CN[C@@H](CC(C)C)C(=O)O; Lauroyl = CCCCCCCCCCCC(=O)*; dNle = CCCC[C@@H](N)C(=O)O; dOrn = NCCC[C@@H](N)C(=O)O; dDab = NCC[C@@H](N)C(=O)O; dPip = O=C(O)[C@H]1CCCCN1; Octanoyl = CCCCCCCC(=O)*; Hexanoyl = CCCCCC(=O)*

Target: T1, natriuretic peptide receptor-B (human)
T1 chain: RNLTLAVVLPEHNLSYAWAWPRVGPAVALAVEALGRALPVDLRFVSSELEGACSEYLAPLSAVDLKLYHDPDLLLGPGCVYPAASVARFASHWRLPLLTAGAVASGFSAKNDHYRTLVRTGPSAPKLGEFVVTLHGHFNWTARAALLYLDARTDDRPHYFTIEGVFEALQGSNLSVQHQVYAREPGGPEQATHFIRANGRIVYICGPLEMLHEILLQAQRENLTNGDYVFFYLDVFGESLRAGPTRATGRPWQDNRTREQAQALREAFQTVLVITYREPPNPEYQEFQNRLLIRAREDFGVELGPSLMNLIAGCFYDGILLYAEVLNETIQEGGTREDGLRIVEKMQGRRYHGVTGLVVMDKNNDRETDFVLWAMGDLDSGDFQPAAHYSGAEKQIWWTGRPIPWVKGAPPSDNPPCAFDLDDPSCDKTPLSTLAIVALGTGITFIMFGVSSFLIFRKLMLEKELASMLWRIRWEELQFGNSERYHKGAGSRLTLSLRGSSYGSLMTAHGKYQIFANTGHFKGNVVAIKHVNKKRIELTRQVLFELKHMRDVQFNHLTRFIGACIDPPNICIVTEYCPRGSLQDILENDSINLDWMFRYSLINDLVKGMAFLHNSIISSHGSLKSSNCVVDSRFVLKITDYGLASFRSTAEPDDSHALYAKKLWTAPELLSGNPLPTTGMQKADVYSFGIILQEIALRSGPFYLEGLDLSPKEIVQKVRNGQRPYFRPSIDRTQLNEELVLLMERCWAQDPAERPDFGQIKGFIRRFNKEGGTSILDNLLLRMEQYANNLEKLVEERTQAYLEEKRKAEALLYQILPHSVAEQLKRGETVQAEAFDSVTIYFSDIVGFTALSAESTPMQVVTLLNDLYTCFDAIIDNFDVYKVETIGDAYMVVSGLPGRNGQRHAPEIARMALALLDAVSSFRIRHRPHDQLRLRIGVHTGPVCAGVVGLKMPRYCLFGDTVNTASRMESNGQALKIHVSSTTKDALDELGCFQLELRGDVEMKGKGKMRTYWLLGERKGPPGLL
Assay: cell-based or functional assay

Octanoyl-[dA]F[dK]L[Hyp][NMeL]DRI-NH2 [JAL-1060]
EC50 group, cGMP in GTM-3 cells: ≤ 1 µM

B1: JAL-1214 (peptide)
peptide: Lauroyl-FRL[Hyp][NMeL]DRI-NH2
modifications: not fully specified (some residues); printed as 832-Phe-arg-Leu-Hyp-Nml-Asp-Arg-Ile-NH2
EC50 group, cGMP in GTM-3 cells: ≤ 5 µM

Octanoyl-[dA][Phe(4-Cl)][dL]L[Hyp]LDRI-NH2 [JAL-1050]
EC50 group, cGMP in GTM-3 cells: ≤ 1 µM

B2: JAL-1077 (peptide)
peptide: Octanoyl-X[NMeF][dR]LP[NMeL]DRI-NH2
modifications: not fully specified (some residues); printed as Occ-pip-Nmf-arg-Leu-Pro-Nml-Asp-Arg-Ile-NH2
EC50 group, cGMP in GTM-3 cells: ≤ 1 µM

Octanoyl-[dA]FGLP[Npl]DRI-NH2 [JAL-1045]
EC50 group, cGMP in GTM-3 cells: ≤ 15 µM

Octanoyl-[dA]F[dR]L[Hyp]LDRI-NH2 [JAL-1047]
EC50 group, cGMP in GTM-3 cells: ≤ 1 µM

Octanoyl-[Sni]F[dL]L[Hyp][NMeL]DRI-NH2 [JAL-1041]
EC50 group, cGMP in GTM-3 cells: ≤ 1 µM

Octanoyl-[dPip]F[dL]L[Hyp]LDRI-NH2 [JAL-1054]
EC50 group, cGMP in GTM-3 cells: ≤ 1 µM

B3: JAL-1078 (peptide)
peptide: Octanoyl-XF[dR]LP[NMeL]DRI-NH2
modifications: not fully specified (some residues); printed as Occ-pip-Phe-arg-Leu-Pro-Nml-Asp-Arg-Ile-NH2
EC50 group, cGMP in GTM-3 cells: ≤ 1 µM

Hexanoyl-[Ebe][dA]FGLKLDRI-NH2 [JAL-0541]
EC50 group, cGMP in GTM-3 cells: ≤ 15 µM

Octanoyl-[dA]F[dK]LP[NMeL]DRI-NH2 [JAL-1065]
EC50 group, cGMP in GTM-3 cells: ≤ 5 µM

Octanoyl-[dA]FGL[Bhp]LDRI-NH2 [JAL-1038]
EC50 group, cGMP in GTM-3 cells: ≤ 15 µM

XXAFGLKLDRIS (Hex-Ebe-ala-Phe-Gly-Leu-Lys-Leu-Asp-Arg-Ile-Ser-NH2) [JAL-0540]
EC50 group, cGMP in GTM-3 cells: ≤ 15 µM

Octanoyl-[dA]F[dK]LP[NMeL]ARI-NH2 [JAL-1068]
EC50 group, cGMP in GTM-3 cells: ≤ 15 µM

Octanoyl-[dA]F[dR]L[Hyp]LDRI-NH2 [JAL-1156_02]
EC50 group, cGMP in GTM-3 cells: ≤ 5 µM

Octanoyl-[dA][NMeF][dL]L[Hyp]LDRI-NH2 [JAL-1052]
EC50 group, cGMP in GTM-3 cells: ≤ 1 µM

Octanoyl-[dA][Phe(4-Cl)][dL]L[Hyp][NMeL]DRI-NH2 [JAL-1043]
EC50 group, cGMP in GTM-3 cells: ≤ 1 µM

B4: JAL-1087 (peptide)
peptide: Octanoyl-XF[dR]L[Hyp][NMeL]DRI-NH2
modifications: not fully specified (some residues); printed as Occ-pip-Phe-arg-Leu-Hyp-Nml-Asp-Arg-Ile-NH2
EC50 group, cGMP in GTM-3 cells: ≤ 1 µM

Octanoyl-[dA]F[dNle]L[Hyp][NMeL]DRI-NH2 [JAL-1044]
EC50 group, cGMP in GTM-3 cells: ≤ 1 µM

Octanoyl-[dA]F[dAgb]LPLDRI-NH2 [JAL-1121]
EC50 group, cGMP in GTM-3 cells: ≤ 5 µM

Hexanoyl-G[dA]FGLKLDRISG-NH2 [JAL-0539]
EC50 group, cGMP in GTM-3 cells: ≤ 5 µM

Octanoyl-[dA][Phe(4-Br)][dR]L[Hyp]LDRI-NH2 [JAL-1116]
EC50 group, cGMP in GTM-3 cells: ≤ 1 µM

Octanoyl-[dA]F[dAgp]LPLDRI-NH2 [JAL-1122]
EC50 group, cGMP in GTM-3 cells: ≤ 5 µM

Octanoyl-[dA]F[dD]L[Hyp]LDRI-NH2 [JAL-1048]
EC50 group, cGMP in GTM-3 cells: ≤ 15 µM

Octanoyl-[dA]F[dR]L[Hyp][NMeL]DRI-NH2 [JAL-1086]
EC50 group, cGMP in GTM-3 cells: ≤ 1 µM

B5: JAL-1157_02 (peptide)
peptide: Octanoyl-XF[dR]L[Hyp]LDRI-NH2
modifications: not fully specified (some residues); printed as Oct-pip-Phe-arg-Leu-Hyp-Leu-Asp-Arg-Ile-NH2
EC50 group, cGMP in GTM-3 cells: ≤ 15 µM

Octanoyl-[Sni]F[dL]LP[NMeL]DRI-NH2 [JAL-1040]
EC50 group, cGMP in GTM-3 cells: ≤ 1 µM

B6: JAL-1159 (peptide)
peptide: Octanoyl-AFR[KM‑116‑167][NMeL]DRI-NH2
modifications: not fully specified (some residues); printed as Occ-ala-Phe-arg-(KM-116-167)-Nml-Asp-Arg-Ile-NH2; reading uncertain
EC50 group, cGMP in GTM-3 cells: ≤ 15 µM

Octanoyl-[dA]F[dR]LP[NMeL]DRI-NH2 [JAL-1075]
EC50 group, cGMP in GTM-3 cells: ≤ 5 µM

Octanoyl-[dPip]FGLPLDRI-NH2 [JAL-1035]
EC50 group, cGMP in GTM-3 cells: ≤ 15 µM

Octanoyl-[dA]F[dL]L[Hyp][NMeL]DRI-NH2 [JAL-1042]
EC50 group, cGMP in GTM-3 cells: ≤ 1 µM

Octanoyl-[dA]FGLPL[cDR]I-NH2 [JAL-1037]
EC50 group, cGMP in GTM-3 cells: ≤ 15 µM

B7: JAL-1224 (peptide)
peptide: Octanoyl-AFRL[Hyp]IDRI-NH2
modifications: not fully specified (some residues); printed as Occ-ala-Phe-arg-Leu-Hyp-Ile-Asp-Arg-Ile-NH2
EC50 group, cGMP in GTM-3 cells: ≤ 5 µM

Octanoyl-[dA][NMeF][dR]LP[NMeL]DRI-NH2 [JAL-1076]
EC50 group, cGMP in GTM-3 cells: ≤ 5 µM

Octanoyl-[dA][NMeF][dR]L[Hyp][NMeL]DRI-NH2 [JAL-1085]
EC50 group, cGMP in GTM-3 cells: ≤ 1 µM

Octanoyl-[dA]F[dR]L[Pro(trans-4-F)]LDRI-NH2 [JAL-1114]
EC50 group, cGMP in GTM-3 cells: ≤ 5 µM

Hexanoyl-G[dA]FGLKLDRISA-NH2 [JAL-0538]
EC50 group, cGMP in GTM-3 cells: ≤ 5 µM

Octanoyl-[dP]F[dL]L[Hyp]LDRI-NH2 [JAL-1053]
EC50 group, cGMP in GTM-3 cells: ≤ 1 µM

Octanoyl-[dA]F[dDab]LPLDRI-NH2 [JAL-1120]
EC50 group, cGMP in GTM-3 cells: ≤ 5 µM

Octanoyl-[dA]FGL[Pro(trans-4-F)]LDRI-NH2 [JAL-1115]
EC50 group, cGMP in GTM-3 cells: ≤ 5 µM

Octanoyl-[dA][Phe(4-Me)][dL]L[Hyp]LDRI-NH2 [JAL-1051]
EC50 group, cGMP in GTM-3 cells: ≤ 5 µM

Octanoyl-[dA]F[dL]LP[NMeL]DRI-NH2 [JAL-1039]
EC50 group, cGMP in GTM-3 cells: ≤ 1 µM

Octanoyl-[dA]F[dOrn]L[Hyp][NMeL]DRI-NH2 [JAL-1061]
EC50 group, cGMP in GTM-3 cells: ≤ 1 µM
